Source: IntAct's records for PubMed 11163211

B1: G2/mitotic-specific cyclin cig2 (Schizosaccharomyces pombe (strain ATCC 38366 / 972)), P36630 (parent)
chain: MALYSISKPVGSKINKHSYQDENTLVGKQALSKGTEKTKLSTNFEINLPRRTVLSDVSNVGKNNADEKDTKKAKRSFDESNLSTNEEADKPVESKFVKKLKVYSKNADPSVETLQKDRVSNVDDHLSSNPLMAEEYAPEIFEYIRKLDLKCLPNPKYMDQQKELTWKMREILNEWLVEIHSNFCLMPETLYLAVNIIDRFLSRRSCSLSKFQLTGITALLIASKYEEVMCPSIQNFVYMTDGAFTVEDVCVAERYMLNVLNFDLSYPSPLNFLRKISQAEGYDAQTRTLGKYLTEIYLFDHDLLRYPMSKIAAAAMYLSRRLLRRGPWTPKLVESSGGYEEHELKEIAYIMLHYHNKPLEHKAFFQKYSSKRFLKASIFVHQLVRQRYSVNRTDDDDLQSEPSSSLTNDGH

Variants of: B1
Details: with cdk1_schpo cdc2, P04551
cdk1_schpo cdc2, P04551, sequence (P04551 whole entry): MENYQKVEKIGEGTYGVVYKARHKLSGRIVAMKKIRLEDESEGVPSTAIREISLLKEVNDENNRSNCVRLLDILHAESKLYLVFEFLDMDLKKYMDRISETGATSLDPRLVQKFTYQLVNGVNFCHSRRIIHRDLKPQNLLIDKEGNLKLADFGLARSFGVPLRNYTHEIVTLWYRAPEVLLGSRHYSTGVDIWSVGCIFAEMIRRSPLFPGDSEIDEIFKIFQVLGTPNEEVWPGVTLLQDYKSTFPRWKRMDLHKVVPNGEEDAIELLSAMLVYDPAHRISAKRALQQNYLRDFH

Row | Variant | effect of a mutation on the interaction
1 | MALYSISKPVGSKINKHSYQDENTLVGKQALSKGTEKTKLSTNFEINLPRRTVLSDVSNVGKNNADEKDTKKAKRSFDESNLSTNEEADKPVESKFVKKLKVYSKNADPSVETLQKDRVSNVDDHLSSNPLMAEEYAPEIFEYIRKLDLKCLPNPKYMDQQKELTWKMAAALNEWLVEIHSNFCLMPETLYLAVNIIDRFLSRRSCSLSKFQLTGITALLIASKYEEVMCPSIQNFVYMTDGAFTVEDVCVAERYMLNVLNFDLSYPSPLNFLRKISQAEGYDAQTRTLGKYLTEIYLFDHDLLRYPMSKIAAAAMYLSRRLLRRGPWTPKLVESSGGYEEHELKEIAYIMLHYHNKPLEHKAFFQKYSSKRFLKASIFVHQLVRQRYSVNRTDDDDLQSEPSSSLTNDGH [R169A;E170A;I171A] | disrupting interaction
